Assay results from PMC6522968.

Molecular target: Glu387 (UniProt position 387, YMYVTENGIAD)
Experiment: kinetics
Conditions: 65 °C; 50.0 mM sodium citrate (pH 3.0–5.6), sodium phosphate (pH 6.0–8.0) and KCl/borate (pH 8.0–10.0); enzyme-substrate complex with 4Np-Glc, as described by the authors; folded, active enzyme

| Substance | pKa |
| --- | --- |
| beta-glycosidase (Ssβ-gly) H150A mutant (A150) (Sulfolobus solfataricus (Saccharolobus solfataricus); H150A) | 5.29 ± 0.18 |
| beta-glycosidase (Ssβ-gly) (Sulfolobus solfataricus (Saccharolobus solfataricus)) | 3.41 ± 0.13 |
